Results published in US20060172380.

Tested on: TAB1 (437-504)

TAK1-HA
in vitro kinase assay of immunoprecipitated TAK1 (activation of XMEK2 (SEK1), phosphorylation of KN-p38 (MPK2)): TAB1 increases TAK1 kinase activity
